Experiment [1] has as its system hT40, dGA, dGAE and truncated tau fragments. As to the kind of experiment: Binding ELISA / epitope mapping of anti-tau scAbs with truncated tau proteins and 13mer peptides. Also noted: species or system human. The following applies: for Short epitope on hT40: Table 18, '3a' & '3b' series scAbs; for Epitope: residue numbers of SEQ ID NO: 1 (hT40), CDR Tables 1-11; for Binding regions on hT40: Table 33, core binding scAbs tested in epitope occlusion assays; for Tau proteins/fragments with positive scAb reactivity: binding ELISA; for Shortest region bound on hT40: incl. 13mer peptides. As for the experimental part:
A series of binding ELISA was performed using various truncated versions of the tau protein and 13mer peptide libraries spanning the entire hT40 molecule for mapping the epitopes of anti-tau scAbs (Full list of protein antigens used is given in Table 14). In general, ELISA plates were coated with 1 μg/ml hT40 or dGA or dGAE or other truncated versions of the protein and in the case of biotinylated peptides, plates were coated with 5 μg/ml Streptavidin followed by 1 μg/ml biotinylated peptide. The plates were blocked with 2% MPBS and scAb samples added at desired starting concentrations and double diluted across the plate. Binding was detected using anti-Human C Kappa HRP conjugated secondary antibody and the resulting immunoreaction was developed and absorbance values measured as described above.
Selected E specific scAbs and their specific binding to dGAE is shown below (FIG. 8A-E).
Similarly, dGA binding ‘NS’, ‘S’ and ‘M’ group scAbs were subjected to further antigen binding ELISA using shorter tau proteins and biotinylated 13mer peptides as shown below (FIG. 10A-F) and (FIG. 11A-R).
(In an ELISA, binding on a coated surface is turned into a signal by an enzyme label.)

For experiment [2], the target named is T1, hT40 (T441, SEQ ID NO: 1) (Homo sapiens, UniProt P10636).
T1 construct: Full length tau (hT40)
T1 sequence (P10636 1-441 isoform P10636-8): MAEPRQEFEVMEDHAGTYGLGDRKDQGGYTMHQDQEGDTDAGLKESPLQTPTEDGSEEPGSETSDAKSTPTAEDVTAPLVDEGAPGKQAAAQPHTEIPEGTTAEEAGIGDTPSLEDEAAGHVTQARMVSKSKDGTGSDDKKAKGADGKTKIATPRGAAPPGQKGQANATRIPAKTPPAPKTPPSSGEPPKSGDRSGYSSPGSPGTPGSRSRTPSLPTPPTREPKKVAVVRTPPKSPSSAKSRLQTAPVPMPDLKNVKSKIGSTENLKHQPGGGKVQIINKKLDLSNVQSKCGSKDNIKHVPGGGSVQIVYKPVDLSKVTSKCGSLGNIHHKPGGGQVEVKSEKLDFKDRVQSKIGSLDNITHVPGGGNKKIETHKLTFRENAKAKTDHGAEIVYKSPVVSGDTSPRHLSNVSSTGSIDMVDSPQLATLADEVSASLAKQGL
The experiment is described as follows: Biacore X100 SPR kinetics of scAbs for hT40. The following applies: Table 25; '3a' and '3b' scAbs, hT40. It counts as binding. As for the experimental part:
Surface plasmon resonance (SPR) is widely regarded as the gold standard for real time measurement of protein-protein interactions such as antibody binding. All SPR experiments were carried out using a Biacore X100 machine and HBS EP+ running buffer (GE Healthcare). A ‘capture’ method was followed for affinity measurements, where an anti-human constant kappa chain (HuCk) antibody was conjugated to the surface of a CM5 sensor chip using an amine coupling kit and scAb molecules were immobilised via their HuCk domain. Amine coupling is a very common approach for immobilising the ligand to the chip surface. […] The capture antibody was diluted 1/100 in 10 mM Sodium acetate buffer pH 5.0 and passed over the activated chip surface for a period of at least 420 s. Final ligand immobilisation levels over 12,000 RU were deemed to be satisfactory.
Following immobilisation, the level of each scAb to be captured was identified using the standard SPR equation with a theoretical RMax of 100 RU. Analyte MW refers to the molecular weight of hT40 or dGA/dGAE molecules, while ligand MW refers to the molecular weight of the scAbs tested. RL is the desired capture level and S refers to the stoichiometric ratio:
The scAb to be tested was added only to flow cell 2 so that flow cell 1 could act as a control to subtract any interaction with the analyte and the chip surface. Both single and multi-cycle runs were utilised using wizards developed in the Biacore X100 control software which are both accepted methods of kinetic analysis (Karlsson, R., et al. Analyzing a kinetic titration series using affinity biosensors (2006) Analytical Biochemistry 349:136-47). The multi-cycle protocol was as follows-Three start-up cycles composed of an initial capture, to the desired level, of the scAb to be tested was performed followed by a 30 s injection of glycine buffer pH 2.0 after each cycle to regenerate the chip surface. […] Following three start-up cycles increasing concentrations (0.15625 nM-100 nM) of the target to be tested were added to the chip surface after the desired scAb capture. The target was added for a 120 s association period and 420 s dissociation period followed by another regeneration, 30 s injection of glycine buffer pH 2.0 in between each cycle.
The single cycle kinetics protocol was similar and utilised the same level of scAb capture. Three start-up cycles were used followed by 5 increasing concentrations of the analyte (6.25 nM-100 nM) for an association period of 120 s followed by a dissociation period of 420 s for each concentration. In single cycle kinetics the regeneration step was performed only after the final analyte concentration was added. Binding responses were analysed in Biacore X100 evaluation software and data fitted to a 1:1 binding model to obtain kinetic and affinity characterisation.
On the technique in general: In SPR one partner is held on a chip, and binding of the other changes the refractive index at the surface.

Here are results for eleven molecules from patent US20250355001A1, “METHOD FOR DETECTING A TAU PROTEIN FRAGMENT IN A SAMPLE” (GTINVENT LIMITED, priority 2022, published 2025).

Residue numbers refer to the chain shown, from its start.

B1: 3aA6: anti-tau clone, Table 8; SEQ ID NO: 418 (protein)
chain: QVRLQESGSSLVKPSQTLSLVCTVSGFPLTSNAVGWVRQAPGKAPEWLGLIDIDGDTAYNPALESRLSITRDTSKSQVSLSLSSVAIEDTAVYYCARHYDKWGYADSIDYWGPGLLVTVSSEGKSSGASGESKVDDQALLTQPSSVFGSLGQRVSITCSGSSSNVGYGDYVGWYQQVPGSAPKLLIYDATTRASGVPDRFSGSRSGNTATLTISSLQAEDEADYYCASYQNERSGVFGSGTRLTVLG
modifications: 3aA6 amino acid sequence
B1: in experiment [1], the “Short epitope on hT40” value is 147-157 and the Epitope is reported as 147-157. For the same molecule, in experiment [2], the “ka” value was found to be 19000 M⁻¹ s⁻¹ and the “kd” value amounted to 0.0188 s⁻¹.

B2: S-1D12 (protein)
CDR 1: NNAVG
CDR 2: GCSSDGTCYYNSALKS
CDR 3: GHYSIYGYDYLGTIDY
CDR 4: SGSSSNVGGGNSVG
CDR 5: DTNSRPS
CDR 6: VTGDSTTHDDL
modifications: VHCDR1 S1D12, S2C1; VHCDR2 S1D12, S2C1; VHCDR3 S1D12; VLCDR1 S1D12, ME12; VLCDR2 S1D12; VLCDR3 S1D12
As to B2, the “Binding regions on hT40” value in experiment [1] is 337-355.

B3: C-E3 (protein)
CDR 1: SNAVG
CDR 2: GCSSDGKCYYNSALKS
CDR 3: GYYPVYGYDYLGTIDY
CDR 4: SGSSSNVGRNDVA
CDR 5: GTTSRPS
CDR 6: ASGDSSAINDI
modifications: VHCDR1 ME12, NS3D9; VHCDR1 S1D2, S1H6, S2C3; VHCDR1 MC5, MD12; VHCDR1 3aA6, VHCDR1 CE3; VHCDR2 NS3D9, CE3; VHCDR3 NS3D9, CE3; VLCDR1 NS3D9, CE3; VLCDR2 NS3D9, CE3; VLCDR3 NS3D9, CE3
For B3, the “Binding regions on hT40” value in experiment [1] was 297-356.

B4: 3bF4: anti-tau clone, Table 7; SEQ ID NO: 421 (protein)
chain: QVQLQESGPSLVKPSQTLSLTCTVSGFSLSSNGVGWVRQAPGKVPEWLGDISSVGKKYANPALKSRLSFTRDTSKSQVSLSLSSVTTEDTAVYYCVKCRDGGVTYGYDIDYWGPGLLVTVSSEGKSSGASGESKVDDQAVLTQPSSVSKSTGQTVSITCSGSSSNVGLRNYVTWFQQVPGSAPKLLIYGATSRASGIPDRFSGSRSGNTATLIISSLQAEDEADYYCASADTNDGGVFGSGTRLTVLG
modifications: 3bF4 amino acid sequence
For B4, in experiment [1], the “Short epitope on hT40” value was 49-111 and the Epitope is 49-111. For the same molecule, in experiment [2], the “ka” value turned out to be 109300 M⁻¹ s⁻¹ and the “kd” value turned out to be 0.01532 s⁻¹.

B5: C-B3 (protein)
scFv: QVQLQESGPSLVKPSQTLSLTCTVSGFSLSSVAVNWVRQAPGKVPEWLGGIISNGGTGYNPALKSRLSITRDTSKSQVSLALTHVTTEDTAVYYCGRGVEWEGSMDYLGPGLLVTVSSEGKSSGSGSETKVDDQSVLTQPSSVSGFLGQRVTITCSGSSSNVGAGSYVGWYQQVPGSGLRILIYGATKRASGLPDRFSGSRSGNTATLTISSLQAEDEADYYCVSYQTDFTLVFGSGTRLTVLG
modifications: left off: small tags and cut ends
Consider B5, for which the “Binding regions on hT40” value in experiment [1] is on record as 360-390.

B6: S1G10: anti-tau clone, Table 2; SEQ ID NO: 415 (protein)
scFv: QVQLQESGPSLVKPSQTLSLTCTVSGFSLTSNSVGWVRQAPGKAPEWVAGIDTDGEEGYNPALNSRLSITRDTSKSQVSLSLSSVTSEDTAVYYCGRSYRADGLAYGYVQAIDYWGPGLLVTVSSEGKSSGASGESKVDDQAVLTQPSSMSGSLGQRVSITCSGSFIGISSVGWFQQLPGSGLRTIIVASDGRPSGVPDRFSMSKSGNTATLTISSLQAEDEADYFCGSSDRTQYTGVFGSGTRLTVLG
modifications: S1G10 amino acid sequence
Take B6: in experiment [1] (Table 16, NS, S and M clones), the “Tau proteins/fragments with positive scAb reactivity” value (“Tau proteins/fragments” below) was “hT40, 297-390 (dGA), 297-391 (dGAE), 369-390, 369-391” and the “Shortest region bound on hT40” value is 367-379. The “Detection scAb (Epitope)” value in experiment [1] (Table 28 (LoD table), residues of hT40) is on record as “S1G10 (367-379)”.

B7: C-A9 (protein)
scFv: B6 scFv with A101S, S148A, M150V
modifications: left off: small tags and cut ends
B7: in experiment [1], the “Binding regions on hT40” value is given as 367-379.

B8: CA12: anti-tau clone, Tables 2 and 10; SEQ ID NO: 372 (protein)
chain: QVQLQGSGPSLVKPSQTLSLTCTVSGFSFDSYYVGWVRQAPGKALEWLGNIYSTGRAFYNPALKSRLSITRDTSKSQVSLSVSSVTIEDTALYYCVRGSYYHGGGNGMVDFFDYWSPGLLVTVSSEGKSSGASGESKVDDQVVRTQPSSVSGSLGQRVSITCSGSSSNVGYGNYVGWFQQVPGSAPKLLIYAATSRASGVPDRFSGSRSGNTATLTIDSLQAEDEADYYCSSYQRGNTGVFGSGTRLTVLG
modifications: CA12 amino acid sequence
For B8, in experiment [1] (Table 17, 'C' group scAbs), the “Tau proteins/fragments” value is listed as “hT40, 297-390 (dGA)” and the “Shortest region bound on hT40” value is 367-379.

B9: CB2: anti-tau clone, Tables 2 and 10; SEQ ID NO: 369 (protein)
scFv: QVQLQESGPSLVKPSQTLSLTCTVSGFSLSTNSVGWVRQAPGKAPEWVAGIDTDGEEGFNPVLKSRLSITRDTSKSQVSLSLSNVTSEDTAVYYCGRSYRTDGLAYGYVQAIDYWGPGLLVTISSEGKSSGASGESKVDDQSVLTQPSSVSGSPGQTVSITCSGSYIGSSGVGWFQQLPGSGLRTIIVASDGRPSGVPDRFSMSKSGNTATLTISSLQAEDEADYFCGSSDRTQYTGLFGSGTRLTVLG
modifications: CB2 amino acid sequence
For B9, in experiment [1] (Table 17, 'C' group scAbs), the “Tau proteins/fragments” value was “hT40, 348-441” and the “Shortest region bound on hT40” value was 359-391.

B10: 3aD3: N-terminal anti-tau clone, Table 6; SEQ ID NO: 422 (protein)
chain: QVQLQESGPSLVKPSQTLSLTCTVSGFSLTSNGVGWVRRAPGKVPEWVGDISSGGKVYGHPALKSRLSITRDTSKSQVSLSVSSVTSEDTAVYYCVRCRDGGVSYGYDSDYWGPGLLVTVSSEGKSSGASGESKVDDQAVVTQPSSVSKSLGQSVSITCSGSSSNVGYGDYVGWFQQVPGSAPKLLIYGVTERASGVPDRFSGSRSGNTATLTISSIQAEDEADYYCASYDDSSGGIFGSGTRLTVLG
modifications: 3aD3 amino acid sequence
Turning to B10, in experiment [1], the “Short epitope on hT40” value was 1-49 and the Epitope was 1-49. Also, in experiment [2], the “ka” value came to 544400 M⁻¹ s⁻¹ and the “kd” value was 0.01038 s⁻¹.

B11: 3aB7: anti-tau clone, Table 7; SEQ ID NO: 420 (protein)
chain: QVQLQESGPSLVKPSQTLSLTCTVSGFSLTSNGVGWVRQAPGKVPEWVGDKSSAGKTYGNPALKSRLSITRDTSKSQVSLSLSSVTTEDTAVYYCVRCRDGGVTYGYDVDYWGPGLLVTVSSEGKSSGASGESKVDDQAVLTQPSSVSKSLGQSVSITCSGSSSNVGYGDVVSWFQQFPGSAPKLLIFGTTTRASGVPDRFSGSRSGNAATLTINSLQAEDEADYYCASFDSDSGGIAGSGTRLTVLG
modifications: 3aB7 amino acid sequence
Consider B11, for which, in experiment [1], the “Short epitope on hT40” value is 49-111 and the Epitope is given as 49-111. Further, in experiment [2], the “ka” value was found to be 207200 M⁻¹ s⁻¹ and the “kd” value turned out to be 0.01435 s⁻¹.
